Measurements reported in article PMC4134263.
Like-named read-outs stand apart in the source and are kept apart here.

B1: lipA site 1 probe (dsDNA)
DNA 1: GAAACGCTTTCCTTCGTAATTCGCAACTGGAACACGCACGCTATGAG
DNA 2: CTCATAGCGTGCGTGTTCCAGTTGCGAATTACGAAGGAAAGCGTTTC
B2: lipA site 2 probe (dsDNA)
DNA 1: CAAAAATAGTTGATAATTACAACAATCTATTGAATTGAAACGC
DNA 2: GCGTTTCAATTCAATAGATTGTTGTAATTATCAACTATTTTTG

Experiments:
PdhR [1] = target: T1, PdhR (Escherichia coli, UniProt P0ACL9 1-254); assay: EMSA
PdhR [2] = target: T1, PdhR; assay: EMSA; remark: listed apart in the source

T1 sequence (P0ACL9 whole entry): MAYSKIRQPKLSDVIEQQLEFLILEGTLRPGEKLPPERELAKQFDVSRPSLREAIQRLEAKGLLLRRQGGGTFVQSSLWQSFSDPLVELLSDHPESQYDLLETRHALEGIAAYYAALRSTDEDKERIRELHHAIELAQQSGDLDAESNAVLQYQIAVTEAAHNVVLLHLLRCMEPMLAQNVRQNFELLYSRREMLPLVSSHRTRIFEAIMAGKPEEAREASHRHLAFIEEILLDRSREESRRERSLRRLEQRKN

| Binder | binding result (PdhR [1]) | binding result (PdhR [2]) |
| --- | --- | --- |
| B1 | no binding |  |
| B2 |  | no binding |
